From patent US8551717B2, “Method for determining sumoylation” (Medizinische Hochschule Hannover, priority 2008, dated 2013)

Assays:
Format in all cases: cell-based
U-CDC37 = target: T1, U-CDC37 (Homo sapiens, UniProt P63279+Q16543); assay: Trans-SUMOylation by U-CDC37; parameters: key: (++), strong TransSUMOylation; (+), TransSUMOylation; (+/−) weak TransSUMOylation; (−) no detectable TransSUMOylation; settings: protein 2 construct coexpressed with U-CDC37 and EGFP-SUMO1 in HEK293; western blot; Table 2
T1 construct: expressed in transfected cells; host or cells: HEK293
T1 sequence (P63279+Q16543 fused): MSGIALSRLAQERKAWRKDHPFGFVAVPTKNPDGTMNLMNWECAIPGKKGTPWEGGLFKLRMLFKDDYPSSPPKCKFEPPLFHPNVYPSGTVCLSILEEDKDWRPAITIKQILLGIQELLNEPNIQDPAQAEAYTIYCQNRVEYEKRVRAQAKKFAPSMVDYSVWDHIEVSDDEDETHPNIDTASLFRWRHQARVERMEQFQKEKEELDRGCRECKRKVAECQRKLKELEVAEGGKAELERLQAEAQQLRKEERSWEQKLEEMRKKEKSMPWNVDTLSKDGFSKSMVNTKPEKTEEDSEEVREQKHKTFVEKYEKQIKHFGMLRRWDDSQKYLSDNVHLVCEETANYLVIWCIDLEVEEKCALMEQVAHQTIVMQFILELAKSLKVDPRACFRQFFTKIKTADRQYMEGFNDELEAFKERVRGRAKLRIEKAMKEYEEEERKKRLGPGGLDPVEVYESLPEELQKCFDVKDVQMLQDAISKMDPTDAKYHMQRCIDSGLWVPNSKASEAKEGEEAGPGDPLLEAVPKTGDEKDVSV
Excerpt: (§1) To identify new SUMOylation substrates and to study the function of SUMOylation the Ubc9/substrate dimerisation-dependent SUMOylation system (USDDS) was developed which consists of fusions of the SUMOylation substrate and of the SUMO-conjugating enzyme Ubc9 to the chemically activatable heterodimerisation domains FKBP and FRB, respectively, as shown in FIG. 2. When the substrate protein fused to FKBP is coexpressed with Ubc9-FRB, treatment of HEK293 cells with the rapamycin-related dimerizer AP21967 induces SUMOylation of the substrate protein fused to FKBP at its specific SUMOylation site. […] Dependent on an EcoRl site in the coding sequence, seven C-terminal amino acids of the human STAT1a in the STAT1-FKBP/FRB fusion proteins are missing. For the SUMOylation analysis HEK293 (human embryonic kidney cells) cells have been used. HEK293 cells were cultured in Dulbecco's modified Eagle's medium with high glucose, complemented with 10% fetal calf serum, 2 mM L-glutamine, 100 U/ml penicillin and […] streptomycin. […]
(§2) As shown above, the SUMOylation of a protein of interest can be induced by the heterodimerisation with a binding protein fused to Ubc9. […] Therefore the protein pairs were coexpressed with EGFP-SUMO1 in HEK293 cells and after 24h the transfectants were lysed and the protein extracts were analyzed in western blots. […]

CDK4-U = target: T2, CDK4-U (Homo sapiens, UniProt P11802+P63279); assay: Trans-SUMOylation by CDK4-U; parameters: key: (++), strong TransSUMOylation; (+), TransSUMOylation; (+/−) weak TransSUMOylation; (−) no detectable TransSUMOylation; settings: protein 2 construct coexpressed with CDK4-U and EGFP-SUMO1 in HEK293; western blot; Table 1
T2 construct: expressed in transfected cells; host or cells: HEK293
T2 sequence (P11802+P63279 fused): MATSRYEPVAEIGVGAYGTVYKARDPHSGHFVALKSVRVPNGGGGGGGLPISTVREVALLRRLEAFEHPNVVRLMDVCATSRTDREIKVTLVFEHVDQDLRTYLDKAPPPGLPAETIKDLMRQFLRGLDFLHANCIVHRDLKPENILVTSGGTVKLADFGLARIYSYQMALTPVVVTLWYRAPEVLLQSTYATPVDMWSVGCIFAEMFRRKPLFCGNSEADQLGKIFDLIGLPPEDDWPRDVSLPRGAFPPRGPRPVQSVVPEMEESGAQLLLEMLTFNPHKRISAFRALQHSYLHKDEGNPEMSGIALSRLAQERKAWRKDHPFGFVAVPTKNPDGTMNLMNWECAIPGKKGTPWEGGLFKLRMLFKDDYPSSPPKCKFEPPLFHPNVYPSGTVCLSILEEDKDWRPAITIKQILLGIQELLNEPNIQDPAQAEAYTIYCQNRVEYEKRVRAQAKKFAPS
Excerpt: as §1, §2

CRSP9-U = target: T3, CRSP9-U (Homo sapiens, UniProt O43513+P63279); assay: Trans-SUMOylation by CRSP9-U; parameters: key: (++), strong TransSUMOylation; (+), TransSUMOylation; (+/−) weak TransSUMOylation; (−) no detectable TransSUMOylation; settings: protein 2 construct coexpressed with CRSP9-U and EGFP-SUMO1 in HEK293; western blot; Table 2
T3 construct: Ubc9 (fusion partner); expressed in transfected cells; host or cells: HEK293
T3 sequence (O43513+P63279 fused): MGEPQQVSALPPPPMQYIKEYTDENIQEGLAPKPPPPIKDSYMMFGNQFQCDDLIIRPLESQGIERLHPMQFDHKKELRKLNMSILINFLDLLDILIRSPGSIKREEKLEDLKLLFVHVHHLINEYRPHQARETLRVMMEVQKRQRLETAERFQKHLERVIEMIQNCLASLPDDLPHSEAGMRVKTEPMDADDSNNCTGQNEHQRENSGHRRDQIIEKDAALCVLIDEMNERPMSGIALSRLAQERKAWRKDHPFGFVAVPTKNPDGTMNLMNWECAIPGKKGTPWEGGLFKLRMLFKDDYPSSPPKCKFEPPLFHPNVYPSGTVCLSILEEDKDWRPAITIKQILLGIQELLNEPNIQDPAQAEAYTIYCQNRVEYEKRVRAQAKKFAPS
Excerpt: as §1, §2

MEK2-U = target: T4, MEK2-U (Homo sapiens, UniProt P36507+P63279); assay: Trans-SUMOylation by MEK2-U; parameters: key: (++), strong TransSUMOylation; (+), TransSUMOylation; (+/−) weak TransSUMOylation; (−) no detectable TransSUMOylation; settings: protein 2 construct coexpressed with MEK2-U and EGFP-SUMO1 in HEK293; western blot; Table 1
T4 construct: expressed in transfected cells; host or cells: HEK293
Excerpt: as §1, §2

U-MK5 = target: T5, U-MK5 (Homo sapiens, UniProt P63279+Q8IW41); assay: Trans-SUMOylation by U-MK5; parameters: key: (++), strong TransSUMOylation; (+), TransSUMOylation; (+/−) weak TransSUMOylation; (−) no detectable TransSUMOylation; settings: protein 2 construct coexpressed with U-MK5 and EGFP-SUMO1 in HEK293; western blot; Table 2
T5 construct: expressed in transfected cells; host or cells: HEK293
T5 sequence (P63279+Q8IW41 fused): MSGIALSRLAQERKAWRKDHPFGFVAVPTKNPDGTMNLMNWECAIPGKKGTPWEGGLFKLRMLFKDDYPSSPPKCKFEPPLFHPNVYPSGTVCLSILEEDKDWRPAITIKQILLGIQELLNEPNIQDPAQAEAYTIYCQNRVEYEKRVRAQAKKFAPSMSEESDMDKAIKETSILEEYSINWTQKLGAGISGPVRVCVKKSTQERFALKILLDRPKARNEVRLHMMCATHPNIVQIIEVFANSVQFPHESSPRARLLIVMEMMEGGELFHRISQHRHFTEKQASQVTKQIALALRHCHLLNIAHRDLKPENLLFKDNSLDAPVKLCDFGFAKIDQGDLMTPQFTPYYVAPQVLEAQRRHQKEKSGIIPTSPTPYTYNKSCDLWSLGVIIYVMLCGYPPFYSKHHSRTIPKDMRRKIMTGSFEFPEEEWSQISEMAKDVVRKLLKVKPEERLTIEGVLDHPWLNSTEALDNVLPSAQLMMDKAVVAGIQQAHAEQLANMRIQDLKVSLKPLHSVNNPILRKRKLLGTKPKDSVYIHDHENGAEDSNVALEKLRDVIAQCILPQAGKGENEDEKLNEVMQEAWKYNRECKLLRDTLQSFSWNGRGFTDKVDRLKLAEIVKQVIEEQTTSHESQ
Excerpt: To identify new SUMOylation substrates and to study the function of SUMOylation the Ubc9/substrate dimerisation-dependent SUMOylation system (USDDS) was developed which consists of fusions of the SUMOylation substrate and of the SUMO-conjugating enzyme Ubc9 to the chemically activatable heterodimerisation domains FKBP and FRB, respectively, as shown in FIG. 2. When the substrate protein fused to FKBP is coexpressed with Ubc9-FRB, treatment of HEK293 cells with the rapamycin-related dimerizer AP21967 induces SUMOylation of the substrate protein fused to FKBP at its specific SUMOylation site. […] Dependent on an EcoRl site in the coding sequence, seven C-terminal amino acids of the human STAT1a in the STAT1-FKBP/FRB fusion proteins are missing. For the SUMOylation analysis HEK293 (human embryonic kidney cells) cells have been used. HEK293 cells were cultured in Dulbecco's modified Eagle's medium with high glucose, complemented with 10% fetal calf serum, 2 mM L-glutamine, 100 U/ml penicillin and […] streptomycin. We performed transfection of HEK293 cells using the polyethylenimine transfection reagent. HEK293 cells of a fresh confluent 10 cm plate were transferred on a 12-well plate. After 12-24 h incubation about 70% cell confluence is reached. For each well 45 μl of serum/antibiotic free DMEM medium is mixed with 750 ng of the transfection-purity expression vector DNA (all together 47 μl) and vortexed. Then, 3 μl of vortexed polyethylenimin stock solution (1 mg/ml) is added and the mixture is vortexed. After incubation at room temperature for 10 min 450 μl fresh DMEM with antibiotics is added to the mixture and vortexed. The medium on the cells was then completely removed and immediately, the 500 μl transfection mix was added carefully to each well. The 12 well plate was rocked to ensure a proper distribution of the DNA/transfection reagent complex. After an incubation of the cells for 24 h at a 37° C. in a humidified CO2-incubator (5%) the cells were lysed in 150 μl Laemmli (2×) gel loading buffer (160 mM Tris-HCL, pH 6.8, 4% (w/v) sodium dodecyl sulphate (SDS), 20% (v/v) glycerol, 0.5% β-mercaptoethanol (v/v), 0.008% (w/v) bromophenol blue) and incubated for 10 min at 95° C. For western blot analysis the proteins were separated by SDS-PAGE, blotted on a PVDF membrane and developed with specific primary antibodies (α-Ubc9 (H81, Santa Cruz), α-pY701-STAT1 (Tyr701, Cell Signaling), α-STAT1 (Cell Signaling), α-p53 (1C12, Cell Signaling), α-SUMO1 (Cell Signaling), a horseradish peroxidase (HRP)-conjugated secondary antibody (different companies), the ECL+ (Amersham) or Immobilon™ Western (Millipore) and the LAS-3000 imaging system (Fuji).
As shown above, the SUMOylation of a protein of interest can be induced by the heterodimerisation with a binding protein fused to Ubc9. To find out if Trans-SUMOylation is useful for the characterisation of common protein interactions, protein binding pairs well known from the literature or found in two hybrid screens. […] Therefore the protein pairs were coexpressed with EGFP-SUMO1 in HEK293 cells and after 24h the transfectants were lysed and the protein extracts were analyzed in western blots.
Protein-protein interactions described in the cited references were tested for Trans-SUMOylation. Each specific protein-protein interaction was tested by coexpression of different combinations of protein 1 fused to Ubc9 (U) with protein 2 mostly fused two a tag (HA, FLAG, Myc, GST, ST). (++), strong TransSUMOylation; (+), TransSUMOylation; (+/−) weak TransSUMOylation; (−) no detectable TransSUMOylation; (MEKK1ca) the activated MAP3 kinase MEKK1, that can enhance protein SUMOylation, was coexpressed.
Protein-protein interaction of each pair of protein 1/protein 2 was tested by coexpression of different combinations of a protein 1 fused to Ubc9 (U) with protein 2 mostly fused two a Tag (HA, FLAG, GST, ST). […]

U-ERK2 = target: T6, U-ERK2 (Homo sapiens, UniProt P28482+P63279); assay: Trans-SUMOylation by U-ERK2; settings: protein 2 construct coexpressed with U-ERK2 and EGFP-SUMO1 in HEK293; western blot; Table 2
T6 construct: expressed in transfected cells; host or cells: HEK293
T6 sequence (P63279+P28482 fused): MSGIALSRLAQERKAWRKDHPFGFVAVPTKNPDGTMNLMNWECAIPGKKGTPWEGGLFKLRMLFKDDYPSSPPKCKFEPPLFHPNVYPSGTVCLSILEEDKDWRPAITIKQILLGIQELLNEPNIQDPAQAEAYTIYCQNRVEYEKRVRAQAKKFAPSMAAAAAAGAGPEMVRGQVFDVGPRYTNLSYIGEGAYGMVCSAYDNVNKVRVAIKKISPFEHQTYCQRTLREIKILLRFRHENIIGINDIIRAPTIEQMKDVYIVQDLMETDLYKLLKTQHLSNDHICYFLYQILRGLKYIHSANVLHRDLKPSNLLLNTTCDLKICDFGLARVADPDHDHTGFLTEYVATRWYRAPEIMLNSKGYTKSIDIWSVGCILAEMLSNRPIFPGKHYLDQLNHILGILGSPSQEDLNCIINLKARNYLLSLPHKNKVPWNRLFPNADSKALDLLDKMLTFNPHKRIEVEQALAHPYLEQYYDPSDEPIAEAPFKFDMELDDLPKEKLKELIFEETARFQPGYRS

ERK2-U = target: T7, ERK2-U (Homo sapiens, UniProt P28482+P63279); assay: Trans-SUMOylation by ERK2-U; settings: protein 2 construct coexpressed with ERK2-U and EGFP-SUMO1 in HEK293; western blot; Table 2
T7 construct: expressed in transfected cells; host or cells: HEK293
T7 sequence (P28482+P63279 fused): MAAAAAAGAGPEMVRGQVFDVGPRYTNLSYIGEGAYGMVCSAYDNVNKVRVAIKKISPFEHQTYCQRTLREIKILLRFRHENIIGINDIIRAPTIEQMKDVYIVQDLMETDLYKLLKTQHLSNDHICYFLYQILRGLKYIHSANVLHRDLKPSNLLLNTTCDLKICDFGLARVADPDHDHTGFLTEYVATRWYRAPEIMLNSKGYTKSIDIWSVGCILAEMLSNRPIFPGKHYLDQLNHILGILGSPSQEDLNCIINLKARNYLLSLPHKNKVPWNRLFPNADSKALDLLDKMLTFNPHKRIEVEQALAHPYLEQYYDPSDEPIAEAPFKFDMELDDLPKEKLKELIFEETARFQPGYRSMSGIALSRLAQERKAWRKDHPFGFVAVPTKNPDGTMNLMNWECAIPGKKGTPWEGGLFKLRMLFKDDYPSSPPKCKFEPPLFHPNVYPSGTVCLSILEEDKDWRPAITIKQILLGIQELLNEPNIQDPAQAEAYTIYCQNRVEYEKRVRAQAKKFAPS

U-p38α = target: T8, U-p38α (Homo sapiens, UniProt P63279+Q16539); assay: Trans-SUMOylation by U-p38α; settings: protein 2 construct coexpressed with U-p38α and EGFP-SUMO1 in HEK293; western blot; Table 1
T8 construct: expressed in transfected cells; host or cells: HEK293
T8 sequence (P63279+Q16539 fused): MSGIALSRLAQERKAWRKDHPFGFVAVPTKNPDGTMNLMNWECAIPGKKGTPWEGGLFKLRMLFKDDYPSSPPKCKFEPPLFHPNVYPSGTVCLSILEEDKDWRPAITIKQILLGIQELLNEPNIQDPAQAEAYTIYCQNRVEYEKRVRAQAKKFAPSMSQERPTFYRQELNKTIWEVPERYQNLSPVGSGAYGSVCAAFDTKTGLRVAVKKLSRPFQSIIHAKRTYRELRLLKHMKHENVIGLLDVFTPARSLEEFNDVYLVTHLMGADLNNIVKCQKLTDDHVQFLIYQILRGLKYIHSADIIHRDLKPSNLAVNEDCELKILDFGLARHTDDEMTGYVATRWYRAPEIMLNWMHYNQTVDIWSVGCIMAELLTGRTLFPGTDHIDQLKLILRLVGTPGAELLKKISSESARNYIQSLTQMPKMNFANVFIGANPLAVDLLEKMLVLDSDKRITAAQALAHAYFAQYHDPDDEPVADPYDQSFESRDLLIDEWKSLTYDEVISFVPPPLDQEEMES

U-MEK2 = target: T9, U-MEK2 (Homo sapiens, UniProt P36507+P63279); assay: Trans-SUMOylation by U-MEK2; parameters: key: (++), strong TransSUMOylation; (+), TransSUMOylation; (+/−) weak TransSUMOylation; (−) no detectable TransSUMOylation; settings: protein 2 construct coexpressed with U-MEK2 and EGFP-SUMO1 in HEK293; western blot; Table 1
T9 construct: expressed in transfected cells; host or cells: HEK293
Excerpt: as §1, §2

MK2-U = target: T10, MK2-U (Homo sapiens, UniProt P49137+P63279); assay: Trans-SUMOylation by MK2-U; settings: protein 2 construct coexpressed with MK2-U and EGFP-SUMO1 in HEK293; western blot; Table 2
T10 construct: expressed in transfected cells; host or cells: HEK293
T10 sequence (P49137+P63279 fused): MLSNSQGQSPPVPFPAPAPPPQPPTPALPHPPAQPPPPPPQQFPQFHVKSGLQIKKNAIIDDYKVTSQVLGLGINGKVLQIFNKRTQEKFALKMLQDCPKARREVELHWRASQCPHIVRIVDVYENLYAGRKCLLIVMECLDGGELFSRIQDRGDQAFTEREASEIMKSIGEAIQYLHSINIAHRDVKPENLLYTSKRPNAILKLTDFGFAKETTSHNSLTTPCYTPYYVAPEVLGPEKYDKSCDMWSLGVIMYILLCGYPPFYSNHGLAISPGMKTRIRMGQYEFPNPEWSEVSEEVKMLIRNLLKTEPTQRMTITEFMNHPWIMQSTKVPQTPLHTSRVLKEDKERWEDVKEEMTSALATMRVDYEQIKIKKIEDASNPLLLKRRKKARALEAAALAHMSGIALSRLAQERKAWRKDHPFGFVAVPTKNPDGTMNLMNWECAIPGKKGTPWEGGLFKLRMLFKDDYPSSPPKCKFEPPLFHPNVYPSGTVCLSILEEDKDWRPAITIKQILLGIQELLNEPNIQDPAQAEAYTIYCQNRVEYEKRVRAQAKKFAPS

U-TAF10 = target: T11, U-TAF10 (Homo sapiens, UniProt P63279+Q12962); assay: Trans-SUMOylation by U-TAF10; parameters: key: (++), strong TransSUMOylation; (+), TransSUMOylation; (+/−) weak TransSUMOylation; (−) no detectable TransSUMOylation; settings: protein 2 construct coexpressed with U-TAF10 and EGFP-SUMO1 in HEK293; western blot; Table 2
T11 construct: Ubc9 (fusion partner); expressed in transfected cells; host or cells: HEK293
T11 sequence (P63279+Q12962 fused): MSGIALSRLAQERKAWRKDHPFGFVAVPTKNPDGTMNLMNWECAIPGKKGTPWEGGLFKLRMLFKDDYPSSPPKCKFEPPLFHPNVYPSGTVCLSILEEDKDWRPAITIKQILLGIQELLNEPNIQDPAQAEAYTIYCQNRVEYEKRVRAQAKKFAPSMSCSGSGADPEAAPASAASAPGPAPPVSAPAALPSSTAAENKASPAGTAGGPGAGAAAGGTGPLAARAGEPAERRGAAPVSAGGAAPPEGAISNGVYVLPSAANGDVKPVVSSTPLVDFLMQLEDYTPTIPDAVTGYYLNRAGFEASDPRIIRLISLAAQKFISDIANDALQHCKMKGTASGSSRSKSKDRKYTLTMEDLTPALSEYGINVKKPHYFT
Excerpt: as §1, §2

GST-CDC37: CDC37 fused to GST tag
Trans-SUMOylation (U-CDC37): +
Trans-SUMOylation (CDK4-U): +

GST-CRSP9: CRSP9 fused to GST tag
Trans-SUMOylation (CRSP9-U): −

GST-ERK2: ERK2 fused to GST tag
Trans-SUMOylation (MEK2-U): +
Trans-SUMOylation (U-MK5): −
Trans-SUMOylation (U-ERK2): −
Trans-SUMOylation (ERK2-U): −
Trans-SUMOylation (U-p38α): −
Trans-SUMOylation (U-MEK2): +

GST-TAF10: TAF10 fused to GST tag
Trans-SUMOylation (MK2-U): −
Trans-SUMOylation (U-TAF10): (+/−)
